Assay results: US20140147456A1 (AFFIRIS, published 2014)

T1: recombinantly expressed human CETP N-terminally fused to GST (human, UniProt P11597 18-493, limits assumed)
T1 construct: coated antigen of the protein ELISA; also called GST-CETP; CETP protein; not shown: GST (Glutathione-S-transferase) tag at the N-terminus
T1 sequence (looked up): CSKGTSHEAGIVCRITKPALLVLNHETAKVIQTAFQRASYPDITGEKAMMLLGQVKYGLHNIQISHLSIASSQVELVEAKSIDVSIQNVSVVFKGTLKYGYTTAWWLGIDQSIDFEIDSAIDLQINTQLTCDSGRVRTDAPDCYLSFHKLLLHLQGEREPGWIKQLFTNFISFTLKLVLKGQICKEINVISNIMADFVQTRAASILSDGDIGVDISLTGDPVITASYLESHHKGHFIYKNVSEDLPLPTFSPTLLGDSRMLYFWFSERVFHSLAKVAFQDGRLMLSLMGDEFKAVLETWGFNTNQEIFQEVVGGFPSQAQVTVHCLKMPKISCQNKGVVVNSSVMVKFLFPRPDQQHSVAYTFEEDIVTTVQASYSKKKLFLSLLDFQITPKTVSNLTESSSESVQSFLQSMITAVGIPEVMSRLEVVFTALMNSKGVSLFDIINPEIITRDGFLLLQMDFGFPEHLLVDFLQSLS

B1: monoclonal antibody 5/C7-6-C8 (antibody, V domains shown)
VH: EVQLVESGGGLVEPGGSLKLSCVASGFTFSTYAMSWFRLTPERRLEWVAAISNGGSQNSYPDSVKGRFTVSRDNAKNTLYLQMSSLRSEDTAMYYCSRNGNYFDYWGQGTTLTVSS
VL: QIVLTQSPAIMSASPGEKVTMTCSASSSISYMHWYQQKPGTSPKRWIFDTSKLASGVPARFSGSGSGTSYSLTISSMEAEDAATYYCHQRSSYPTFGSGTKLEIK
B2: monoclonal antibody BTS4-1 (antibody, V domains shown)
VH: QIQLVQSGPELKKPGETVKISCKASGYTFTDCSMHWVKQAPGQGLKWMGWINTKTGEPTYADDFKGRFAFSLETSASTAYLQINILKNEDSATYFCAAHSGKDYAIDYWGQGTSVTVSS
VL: DVLMTQTPLSLPVSLGDQASISCRSSQSIVHRNGNTYLEWYLQKPGQSPKLLIYKVSNRFSGVPDRFSGSGSGTDFTLRISRVEAQDLGVYFCFQGSRVPPTFGGGTKLEIK
B3: monoclonal antibody CJ7-6-B7 (antibody, V domains shown)
VH: NVQLQESGPGLVKPSQSLSLTCTVTGHSITSDYAWNWIRQFPGNKLEWMGYITNSGSTTYNPSLKSRISITRDTSKNQFFLQLNSVTTEDTATYYCTRGGPYWGQGTLVTVSA
VL: DIVMTQSQKFMSTSVGDRVSITCKASQNVGTAVVWYQQKPGQSPKLLIYSASNRYTGVPDRFTGSGSGTDFTLTITNMQSEDLADYFCQQYSSYPLTFGAGTKLELK
B4: monoclonal antibody 12/B3-5-B11 (antibody, V domains shown)
VH: DVQLQESGPGLVKPSQSLSLTCTVTGYSITSDYAWNWIRQFPGNKLEWMGYISYSGTTTYNPSLKSRISITRHTSKNQFFLQLNSVTTEDSATYYCTRLGYYFDYWGQGTTLTVSS
VL: DIVMTQSPASLAMSVGQKVTMNCKSSQSLLSSKNQKNFLAWYQQKPGQSPKVLVYFASTRASGVPDRFIGSGSGTDFTLTISSVQAEDLADYFCQQQYNTPLTFGAGTKLELK

What follows are binders tested against T1, recombinantly expressed human CETP … (assay: human CETP protein ELISA, coated protein, antibody titrated).
B1: binds. B2: binds. B3: binds. B4: binds.
